From patent US20160115234A1 (Biogen, published 2016)

How the values were obtained:
[1] = biological target: T1, human GPIIb/IIIa (Calbiochem Cat No. 528240) (human, UniProt P08514 32-1039; P05106 27-788); experiment: ELISA, hybridoma supernatant
T1 construct: Bought purified protein coated on ELISA plates; How the α/β subunit specificity ELISA was set up is not described; also called αIIbβ3; glycoprotein IIb/IIIa

[2] = biological target: T2, GPIIb/IIIa on human platelets (human, UniProt P08514 32-1039; P05106 27-788); experiment: flow cytometry, protein spiked into citrated human whole blood, FITC anti-FVII on CD42b-gated platelets
T2 construct: Native receptor on gel-purified human platelets or on platelets in citrated human whole blood; also called GPIIb/IIIa receptor

[3] = biological target: T3, GPIIb/IIIa nanodiscs (recombinant biotinylated, HPC4-tagged GPIIb/IIIa) (human, UniProt P08514 32-1039; P05106 27-788); experiment: SPR, biotinylated GPIIb/IIIa nanodiscs on a streptavidin chip
T3 construct: Transiently expressed in HEK293 cells, purified, and put into nanodiscs with scaffold protein and phospholipids; It carries a tag for in vivo biotinylation and an HPC4 tag; also called GPIIb/IIIa receptor; biotinylated GPIIb/IIIa receptor

[4] = biological target: T2, GPIIb/IIIa on human platelets; experiment: flow cytometry on platelets, hybridoma supernatant (signal higher than in ELISA)

Row | Binder | binding result [1] | further results
1 | 34D10 (antibody, V domains shown, Mouse hybridoma monoclonal tested as supernatant) VH: EVKLVESGGGLVKPGGSLKLSCAASGFTFSAYAMSWVRQTPEKRLEWVASISSGGTTYYPDSVKRRFTISRDNARNILYLQMSSLRSEDTAMYYCTRGGDYGYALDYWGQGTSVTVSS VL: ENVLTQSPAIMSASLGEKVTMSCRASSSVNYMYWYQQKSDASPKLWIYYTSNLAPGVPARFSGSGSGNSYSLTISSMEGEDAATYYCQQFSSSPWTFGGGTKLEIKR | binds | –
2 | 4B11 (antibody, V domains shown, Mouse hybridoma monoclonal tested as supernatant) VH: EVKLVESGGGLVKPGGSLKLSCAASGFTFSSYAMSWVRQTPEKRLAWVASISSGGNIYFPDSVKGRFTISRDDARNILYLQMRSLRSEDTAMYYCARGGDYGYAMDYWGQGTSVTVSS VL: ENVLTQSPAIMSASLGEKVTMNCRASSSVNYMYWYQQKSDASPKLWIFYTSNLAPGVPARFSGSGSGNSYSLTISSMEGEDAATYYCQQFSSSPWTFGGGSKLEIKR | binds | –
3 | 36A8 (antibody, V domains shown, Mouse hybridoma monoclonal tested as supernatant) VH: EVRLVESGGGLVKPGGSLKLSCAASGFTFSTYAMSWVRQTPEKRLEWVASINGGGSTYYPDSVKGRFTISRDNARNILYLQMRSLRSEDTAMYYCARGGDYGYALDYWGQGTSVTVSS VL: ENVLTQSPAIMSASLGEKVTMNCRASSSVNYMYWYQQKSDASPKLWIFYTSNLAPGVPARFSGSGSGNSYSLTISSMEGEDAATYYCQQFSSSPWTFGGGSKLEIKR | binds | –
4 | Recombinant FVIIa (enzyme, domain: light chain of FVIIa;domain: heavy chain of FVIIa; Untargeted control; also called rFVIIa; recombinant FVIIa alone (no targeting moiety)) chain 1: ANAFLEELRPGSLERECKEEQCSFEEAREIFKDAERTKLFWISYSDGDQCASSPCQNGGSCKDQLQSYICFCLPAFEGRNCETHKDDQLICVNENGGCEQYCSDHTGTKRSCRCHEGYSLLADGVSCTPTVEYPCGKIPILEKRNASKPQGR chain 2: IVGGKVCPKGECPWQVLLLVNGAQLCGGTLINTIWVVSAAHCFDKIKNWRNLIAVLGEHDLSEHDGDEQSRRVAQVIIPSTYVPGTTNHDIALLRLHQPVVLTDHVVPLCLPERTFSERTLAFVRFSLVSGWGQLLDRGATALELMVLNVPRLMTQDCLQQSRKVGDSPNITEYMFCAGYSDGSKDSCKGDSGGPHATHYRGTWYLTGIVSWGQGCATVGHFGVYTRVSQYIEWLQKLMRSEPRPGVLLRAPFP | – | binding result [2]: no binding; binding result [3]: no binding
5 | 1H6 (antibody, V domains shown, Mouse hybridoma monoclonal tested as supernatant) VH: QVQLQQSGAELVRPGTSVKVSCKASGYAFTNYLIEWVKQRPGQGLEWIGVINPGSGGTNYNEKFKGKATLTADKSSSTAYMHLSSLTSDDSAVYFCARGRYEWYFDVWGAGTTVTVSS VL: DIQMTQTTSSLSASLGDRVTISCRASQDITNYLNWYQRKPDGTVKLLIYYTSRLHSGVPSRFSGSGSGTDYSLTISNLEQEDIATYFCQQGYTLPYTFGGGTKLEIKR | binds | –
6 | 12B2 (antibody, V domains shown, Mouse hybridoma monoclonal tested as supernatant) VH: QVQLQQSGAELTKPGASVKISCKATGYTFSSYWIEWVKQRPGHGLEWIGEILPGSGITKYNDKFKGKATFTADTSSNTAYMQLSSLTSEDSAVYSCARLISYYYAMDYWGQGTSVTVSS VL: DIQMTQTTSSLSASLGDRVTISCRASQDISNYLNWYQQKPDGTVKLLIYYTSRLHSGVPSRFSGSGSGTDYSLTISNLEQEDIATYFCQQGNTLPPTFGGGTKLEIKR | binds | –
7 | 38A8 (antibody, V domains shown, Mouse hybridoma monoclonal tested as supernatant) VH: QVQLQQSGAELVRPGTSVKVSCKASGYAFTNYLIEWIKQRPGQGLEWIGVINPGSGGTNYNEKFKGKATLTADKSSSTAYMQLSSLTSDDSAVYFCARGRYEWYFDVWGAGTTVTVSS VL: DIQMTQTTSSLSASLGDRVTISCRASQDISNYLNWYLQKPDGTVKLLIYYTSRLHSGVPSRFSGSGSGTDYSLSISNLEQEDIATYFCQQGYTLPYTFGGGTKLEIKR | binds | –
8 | 18F7 (antibody, V domains shown, Mouse hybridoma monoclonal tested as supernatant) VH: QVQLKESGPGLVAPSQSLSITCTVSGFSLTSYGVSWVRQPPGKGLEWLGIIWGDGSTNYHSVLKSRLSISKDNSKSQVFLKLNSLQTDDTATYYCAKQDFDVWGAGTTVTVSS VL: DVQMIQSPFSLSASLGDIVTMTCQASQGTSINLNWFQQKPGKAPKLLIYGVSNLEDGVPSRFSGSRYGTDFTLTIGSLEDEDMATYFCLQHSYLPYTFGGGTKLEIKR | binds | binding result [4]: binds
9 | 28C2 (antibody, V domains shown, Mouse hybridoma monoclonal tested as supernatant) VH: QVTLKASGPGIVQPSQTLSLTCSFSGFSLNTSGMGVGWIRQPSGKGLEWLAHIWWDDDKRYNPALKSRLTISKDTSNNQIFLKIASVDTADTATYYCARSHYYGTFYFDYWGQGTTLTVSS VL: DVQITQSPSYLAASPGETITINCRASKSISKYLAWYQEKPGTTYKLLIYSGSTLQSGIPSRFSGSGSGTDFTLTISSLEPEDFAMYYCQQHIEYPWTFGGGTKLEIKR | binds | –
10 | 9D6 (antibody, V domains shown, Mouse hybridoma monoclonal tested as supernatant) VH: QVTLKESGPGILQPSQTLSLTCSFSGFSLSTSGMGVGWIRQSSGKGLEWLAHIWWDDDKRYNPTLKSRLTISKDTSNNQVFLKIANMDTADIATYYCARSHYNGTFYFDFWGQGITLTVSS VL: DVQITQSPSYLAASPGETITINCRASKSISKYLAWYQEKPGKTNKLLIYSGSTLQSGIPSRFSGSGSGTDFTLTISTLEPEDFAMYYCQQHIEYPWTFGGGTKLEIKR | binds | –
11 | 28F4 (antibody, V domains shown, Mouse hybridoma monoclonal tested as supernatant) VH: EVQLVESGGDLVKPGGSLKLSCAASGFTFSNYGMSWVRQTPDKRLEWVATISSGGTYTYYPDSVKGQFTIFRDNAKNTLYLQMSSLKSEDTAMYYCTRRDYDYEGFAYWGQGTLVTVS VL: DIVLTQSPATLSVTPGDSVSLSCRASQSISNNLHWYQQKSHESPRLLIKYASHSISGIPSRFSGSGSGTDFTLSINSVETEDFGMYFCQQSNNWPFTFGSGTKLEIKR | binds | binding result [4]: binds
